Results taken from patent US20250215103A1 (Hoffmann-La Roche, published 2025).

Columns and labels:
Assay in all cases: cell-based or functional assay
[1] = target: T1, human PD1 on cells (Jurkat cells expressing human PD1; activated human T cells) (human, UniProt Q15116 25-288)
[2] = target: T1, human PD1 on cells (Jurkat cells …); remark: listed apart in the source
[3] = target: T1, human PD1 on cells (Jurkat cells …); remark: listed apart in the source

T1 sequence (Q15116 25-288 limits assumed): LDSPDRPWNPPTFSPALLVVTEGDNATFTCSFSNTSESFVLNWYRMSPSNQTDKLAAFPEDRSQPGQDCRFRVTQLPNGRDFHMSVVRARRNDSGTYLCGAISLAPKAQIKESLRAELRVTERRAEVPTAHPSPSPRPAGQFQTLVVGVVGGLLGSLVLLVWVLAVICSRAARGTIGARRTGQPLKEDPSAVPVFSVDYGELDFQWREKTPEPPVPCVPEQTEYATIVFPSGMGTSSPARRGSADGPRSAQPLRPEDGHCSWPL

Binder | EC50 (pM) of Granzyme B production, mMLR [1] | Fold activity vs. control (EC50 of Granzyme B, mMLR), control PD1-0103-312 [2] | Fold activity vs. control (EC50 of Granzyme B, mMLR), control 8014 [3]
PD1-0103-0312 (antibody, V domains shown) VH: EVQLLESGGGLVQPGGSLRLSCAASGFSFSSYTMSWVRQAPGKGLEWVATISGGGRDIYYPDSVKGRFTISRDNSKNTLYLQMNSLRAEDTAVYYCVLLTGRVYFALDSWGQGTLVTVSS VL: DIVMTQSPDSLAVSLGERATINCKASESVDTSDNSFIHWYQQKPGQSPKLLIYRSSTLESGVPDRFSGSGSGTDFTLTISSLQAEDVAVYYCQQNYDVPWTFGQGTKVEIK | 110 pM |  | 
control 2+1 CrossMab 8159 (PD1-0103-0312/Nada TCB-format) (bispecific antibody, human IgG1, kappa, L234A L235A) light 1: EVQLLESGGGLVQPGGSLRLSCAASGFSFSSYTMSWVRQAPGKGLEWVATISGGGRDIYYPDSVKGRFTISRDNSKNTLYLQMNSLRAEDTAVYYCVLLTGRVYFALDSWGQGTLVTVSSASVAAPSVFIFPPSDEQLKSGTASVVCLLNNFYPREAKVQWKVDNALQSGNSQESVTEQDSKDSTYSLSSTLTLSKADYEKHKVYACEVTHQGLSSPVTKSFNRGEC light 2: DIQMTQSPSSLSASVGDRVTITCRASQDVGSGVAWYQQKPGKAPKLLIGSASGLYSGVPSRFSGSRSGTDFTLTISSLQPEDFATYYCQQSASGGSTFGQGTKVEIKRTVAAPSVFIFPPSDRKLKSGTASVVCLLNNFYPREAKVQWKVDNALQSGNSQESVTEQDSKDSTYSLSSTLTLSKADYEKHKVYACEVTHQGLSSPVTKSFNRGEC heavy 1: DIVMTQSPDSLAVSLGERATINCKASESVDTSDNSFIHWYQQKPGQSPKLLIYRSSTLESGVPDRFSGSGSGTDFTLTISSLQAEDVAVYYCQQNYDVPWTFGQGTKVEIKSSASTKGPSVFPLAPSSKSTSGGTAALGCLVKDYFPEPVTVSWNSGALTSGVHTFPAVLQSSGLYSLSSVVTVPSSSLGTQTYICNVNHKPSNTKVDKKVEPKSCDGGGGSGGGGSEVQLVESGGGLVQPGGSLRLSCAASGFSIAGTAIHWVRQAPGKGLEWVASISPGGGSTAYADSVKGRFTISADTSKNTAYLQMNSLRAEDTAVYYCSRSGGSGASAMDYWGQGTLVTVSSASTKGPSVFPLAPSSKSTSGGTAALGCLVEDYFPEPVTVSWNSGALTSGVHTFPAVLQSSGLYSLSSVVTVPSSSLGTQTYICNVNHKPSNTKVDEKVEPKSCDKTHTCPPCPAPEAAGGPSVFLFPPKPKDTLMISRTPEVTCVVVDVSHEDPEVKFNWYVDGVEVHNAKTKPREEQYNSTYRVVSVLTVLHQDWLNGKEYKCKVSNKALGAPIEKTISKAKGQPREPQVCTLPPSRDELTKNQVSLSCAVKGFYPSDIAVEWESNGQPENNYKTTPPVLDSDGSFFLVSKLTVDKSRWQQGNVFSCSVMHEALHNHYTQKSLSLSP heavy 2: not shown | 117 pM |  | 
bispecific CrossMab 8013 (PD1-0103-0312/1026) (bispecific antibody, human IgG1, kappa, L234A L235A) heavy 1: QSMQESGPGLVKPSQTLSLTCTVSGFSLSSYAMSWIRQHPGKGLEWIGYIWSGGSTDYASWAKSRVTISKTSTTVSLKLSSVTAADTAVYYCARRYGTSYPDYGDASGFDPWGQGTLVTVSSASTKGPSVFPLAPSSKSTSGGTAALGCLVEDYFPEPVTVSWNSGALTSGVHTFPAVLQSSGLYSLSSVVTVPSSSLGTQTYICNVNHKPSNTKVDEKVEPKSCDKTHTCPPCPAPEAAGGPSVFLFPPKPKDTLMISRTPEVTCVVVDVSHEDPEVKFNWYVDGVEVHNAKTKPREEQYNSTYRVVSVLTVLHQDWLNGKEYKCKVSNKALGAPIEKTISKAKGQPREPQVCTLPPSRDELTKNQVSLSCAVKGFYPSDIAVEWESNGQPENNYKTTPPVLDSDGSFFLVSKLTVDKSRWQQGNVFSCSVMHEALHNHYTQKSLSLSP light 1: AIQLTQSPSSLSASVGDRVTITCRASQSISSYLAWYQQKPGKAPKLLIYRASTLASGVPSRFSGSGSGTDFTLTISSLQPEDFATYYCQQNYASSNVDNTFGGGTKVEIKRTVAAPSVFIFPPSDRKLKSGTASVVCLLNNFYPREAKVQWKVDNALQSGNSQESVTEQDSKDSTYSLSSTLTLSKADYEKHKVYACEVTHQGLSSPVTKSFNRGEC heavy 2: not shown light 2: EVQLLESGGGLVQPGGSLRLSCAASGFSFSSYTMSWVRQAPGKGLEWVATISGGGRDIYYPDSVKGRFTISRDNSKNTLYLQMNSLRAEDTAVYYCVLLTGRVYFALDSWGQGTLVTVSSASVAAPSVFIFPPSDEQLKSGTASVVCLLNNFYPREAKVQWKVDNALQSGNSQESVTEQDSKDSTYSLSSTLTLSKADYEKHKVYACEVTHQGLSSPVTKSFNRGEC | 388 pM | 0.47 fold vs PD1-0103-312 | 191 fold vs 8014

The next lines start with the values.

EC50 (pM) of Granzyme B production, mMLR [1] | Fold activity vs. control (EC50 of Granzyme B, mMLR), control PD1-0103-312 [2] | Fold activity vs. control (EC50 of Granzyme B, mMLR), control 8014 [3] | Binder
34 pM | 3.82 fold vs PD1-0103-312 | 1560 fold vs 8014 | bispecific CrossMab 8012 (PD1-0103-0312/51A165) (bispecific antibody, human IgG1, kappa, L234A L235A) heavy 1: EVQLQQSGPELVKPGASVKMSCKASGYTFTSYVMHWVKQKPGQGLEWIGYVNPYNDDTKYNEKFRGKATLTSDKSSSTAYMELSSLTSEDSAVYYCARSYYYYSMDNWGQGTSVTVSSASTKGPSVFPLAPSSKSTSGGTAALGCLVEDYFPEPVTVSWNSGALTSGVHTFPAVLQSSGLYSLSSVVTVPSSSLGTQTYICNVNHKPSNTKVDEKVEPKSCDKTHTCPPCPAPEAAGGPSVFLFPPKPKDTLMISRTPEVTCVVVDVSHEDPEVKFNWYVDGVEVHNAKTKPREEQYNSTYRVVSVLTVLHQDWLNGKEYKCKVSNKALGAPIEKTISKAKGQPREPQVCTLPPSRDELTKNQVSLSCAVKGFYPSDIAVEWESNGQPENNYKTTPPVLDSDGSFFLVSKLTVDKSRWQQGNVFSCSVMHEALHNHYTQKSLSLSP light 1: QIVLTQSPAIMSASPGEKVTVTCSASSSIRYMHWYQQKPGTSPKRWIYDTSELASGVPARFSGSGSGTSYSLTINSMEAEDAATYYCHQRSSYPFTFGGGTKLEIKRTVAAPSVFIFPPSDRKLKSGTASVVCLLNNFYPREAKVQWKVDNALQSGNSQESVTEQDSKDSTYSLSSTLTLSKADYEKHKVYACEVTHQGLSSPVTKSFNRGEC heavy 2: not shown light 2: EVQLLESGGGLVQPGGSLRLSCAASGFSFSSYTMSWVRQAPGKGLEWVATISGGGRDIYYPDSVKGRFTISRDNSKNTLYLQMNSLRAEDTAVYYCVLLTGRVYFALDSWGQGTLVTVSSASVAAPSVFIFPPSDEQLKSGTASVVCLLNNFYPREAKVQWKVDNALQSGNSQESVTEQDSKDSTYSLSSTLTLSKADYEKHKVYACEVTHQGLSSPVTKSFNRGEC
111 pM |  |  | control 2+1 CrossMab 8158 (PD1-0103-0312/Nada BBB-format) (bispecific antibody, human IgG1, kappa, L234A L235A) light 1: EVQLLESGGGLVQPGGSLRLSCAASGFSFSSYTMSWVRQAPGKGLEWVATISGGGRDIYYPDSVKGRFTISRDNSKNTLYLQMNSLRAEDTAVYYCVLLTGRVYFALDSWGQGTLVTVSSASVAAPSVFIFPPSDEQLKSGTASVVCLLNNFYPREAKVQWKVDNALQSGNSQESVTEQDSKDSTYSLSSTLTLSKADYEKHKVYACEVTHQGLSSPVTKSFNRGEC light 2: DIQMTQSPSSLSASVGDRVTITCRASQDVGSGVAWYQQKPGKAPKLLIGSASGLYSGVPSRFSGSRSGTDFTLTISSLQPEDFATYYCQQSASGGSTFGQGTKVEIKRTVAAPSVFIFPPSDRKLKSGTASVVCLLNNFYPREAKVQWKVDNALQSGNSQESVTEQDSKDSTYSLSSTLTLSKADYEKHKVYACEVTHQGLSSPVTKSFNRGEC heavy 1: DIVMTQSPDSLAVSLGERATINCKASESVDTSDNSFIHWYQQKPGQSPKLLIYRSSTLESGVPDRFSGSGSGTDFTLTISSLQAEDVAVYYCQQNYDVPWTFGQGTKVEIKSSASTKGPSVFPLAPSSKSTSGGTAALGCLVKDYFPEPVTVSWNSGALTSGVHTFPAVLQSSGLYSLSSVVTVPSSSLGTQTYICNVNHKPSNTKVDKKVEPKSCDKTHTCPPCPAPEAAGGPSVFLFPPKPKDTLMISRTPEVTCVVVDVSHEDPEVKFNWYVDGVEVHNAKTKPREEQYNSTYRVVSVLTVLHQDWLNGKEYKCKVSNKALGAPIEKTISKAKGQPREPQVCTLPPSRDELTKNQVSLSCAVKGFYPSDIAVEWESNGQPENNYKTTPPVLDSDGSFFLVSKLTVDKSRWQQGNVFSCSVMHEALHNHYTQKSLSLSPGKGGGGSGGGGSEVQLVESGGGLVQPGGSLRLSCAASGFSIAGTAIHWVRQAPGKGLEWVASISPGGGSTAYADSVKGRFTISADTSKNTAYLQMNSLRAEDTAVYYCSRSGGSGASAMDYWGQGTLVTVSSASTKGPSVFPLAPSSKSTSGGTAALGCLVEDYFPEPVTVSWNSGALTSGVHTFPAVLQSSGLYSLSSVVTVPSSSLGTQTYICNVNHKPSNTKVDEKVEPKSCD heavy 2: not shown
13100 pM |  |  | control CrossMab 8014 (PD1-0103-0312/Nada) (bispecific antibody, human IgG1, kappa, L234A L235A) heavy 1: EVQLVESGGGLVQPGGSLRLSCAASGFSIAGTAIHWVRQAPGKGLEWVASISPGGGSTAYADSVKGRFTISADTSKNTAYLQMNSLRAEDTAVYYCSRSGGSGASAMDYWGQGTLVTVSSASTKGPSVFPLAPSSKSTSGGTAALGCLVEDYFPEPVTVSWNSGALTSGVHTFPAVLQSSGLYSLSSVVTVPSSSLGTQTYICNVNHKPSNTKVDEKVEPKSCDKTHTCPPCPAPEAAGGPSVFLFPPKPKDTLMISRTPEVTCVVVDVSHEDPEVKFNWYVDGVEVHNAKTKPREEQYNSTYRVVSVLTVLHQDWLNGKEYKCKVSNKALGAPIEKTISKAKGQPREPQVCTLPPSRDELTKNQVSLSCAVKGFYPSDIAVEWESNGQPENNYKTTPPVLDSDGSFFLVSKLTVDKSRWQQGNVFSCSVMHEALHNHYTQKSLSLSP light 1: DIQMTQSPSSLSASVGDRVTITCRASQDVGSGVAWYQQKPGKAPKLLIGSASGLYSGVPSRFSGSRSGTDFTLTISSLQPEDFATYYCQQSASGGSTFGQGTKVEIKRTVAAPSVFIFPPSDRKLKSGTASVVCLLNNFYPREAKVQWKVDNALQSGNSQESVTEQDSKDSTYSLSSTLTLSKADYEKHKVYACEVTHQGLSSPVTKSFNRGEC heavy 2: not shown light 2: EVQLLESGGGLVQPGGSLRLSCAASGFSFSSYTMSWVRQAPGKGLEWVATISGGGRDIYYPDSVKGRFTISRDNSKNTLYLQMNSLRAEDTAVYYCVLLTGRVYFALDSWGQGTLVTVSSASVAAPSVFIFPPSDEQLKSGTASVVCLLNNFYPREAKVQWKVDNALQSGNSQESVTEQDSKDSTYSLSSTLTLSKADYEKHKVYACEVTHQGLSSPVTKSFNRGEC
